Experimental data published in publication PMC3672029 (BMC Structural Biology, 2013).

Biological target: the molecule itself
Assay: crystal structure; Se-Met MJ0391 (28 mg/mL), sitting-drop vapor diffusion at 293 K, 50%(v/v) PEG-400, 0.1 M MES pH 6.0; MAD, refined at 2.3 Å; two NCS molecules in the asymmetric unit, tetramer generated by the crystallographic 2-fold axis

B1: hypothetical protein MJ0391 from Methanocaldococcus jannaschii (putative CbiT) (enzyme, Methanocaldococcus jannaschii DSM 2661)
chain: MKYMIPDEEFIRREGVPITKEEIRAVSIGKLNLNKDDVVVDVGCGSGGMTVEIAKRCKFVYAIDYLDGAIEVTKQNLAKFNIKNCQIIKGRAEDVLDKLEFNKAFIGGTKNIEKIIEILDKKKINHIVANTIVLENAAKIINEFESRGYNVDAVNVFISYAKKIPSGHMFLAKNPITIIKAVR
modifications: selenomethionine in place of methionine (Se-Met protein; Mse4 and Mse169 are printed)
notes: MJ0391 protein, putative CbiT (cobalt-precorrin-7 C15-methyltransferase / C12-decarboxylase), Methanocaldococcus jannaschii DSM 2661; gene amplified from genomic DNA and cloned into pET-21a; 183 amino acid residues and 21 kDa per monomer; residues 1-3 are not seen in the final model
For B1, the “stoichiometry N” value was 4.
